Assay results taken from publication PMC7181697.

Key:
[1] = molecular target: REV7^Y63A-SHLD3(1–82) (human) (UniProt Q9UI95); experiment: ITC; method not named in the sentence (Supplementary Fig. 7e, f); ITC is the only method for affinities that the methods describe
[2] = molecular target: REV7^W171A-SHLD3(1–82) (human) (UniProt Q9UI95); experiment: as above
Chain of REV7^W171A-SHLD3(1–82) (human) (Q9UI95 whole entry W171A, chain 1 of 2): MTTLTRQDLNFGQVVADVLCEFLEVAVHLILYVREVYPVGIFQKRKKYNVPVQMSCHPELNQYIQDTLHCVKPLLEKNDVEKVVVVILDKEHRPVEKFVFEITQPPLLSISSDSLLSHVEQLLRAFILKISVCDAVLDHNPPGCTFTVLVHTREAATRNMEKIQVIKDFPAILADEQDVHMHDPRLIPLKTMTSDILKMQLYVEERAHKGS
Chain of REV7^W171A-SHLD3(1–82) (human) (Q6ZNX1 1-82, chain 2 of 2, further chain): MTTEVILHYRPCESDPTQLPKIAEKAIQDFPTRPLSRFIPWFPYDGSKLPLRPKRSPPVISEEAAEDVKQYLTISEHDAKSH

Chain of REV7^Y63A-SHLD3(1–82) (human) (Q9UI95 whole entry Y63A, chain 1 of 2): as the sequence (Q9UI95 whole entry W171A, chain 1 of 2) above, with Y63A, A171W counted along it
Chain of REV7^Y63A-SHLD3(1–82) (human) (Q6ZNX1 1-82, chain 2 of 2, further chain): as the sequence (Q6ZNX1 1-82, chain 2 of 2, further chain) above

Kd [1]: 37 µM
Kd [2]: 1.1 µM
B1: MBP-REV3(1847–2021) (domain or fragment)
chain: MLTPTPDSSPRSTSSPSQSKNGSFTPRTANILKPLMSPPSREEIMATLLDHDLSETIYQEPFCSNPSDVPEKPREIGGRLLMVETRLANDLAEFEGDFSLEGLRLWKTAFSAMTQNPRPGSPLRSGQGVVNKGSSNSPKMVEDKKIVIMPCKCAPSRQLVQVWLQAKEEYERSKK
